The results in this text go back to the supplement of paper PMC9170038.

The test system of the series is MS2 coat protein. The series is described as follows: apparent KD of MS2 coat protein; designed switch direction (-1 OFF switch, 1 ON switch): 1; higher = weaker reporter binding. The method in brief:
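Stalled E. coli RNA polymerase transcribed designed RNA switches on Illumina chips, which were then titrated with SNAP-549-labelled MS2 coat protein, doubling from 0.7 or 1.5 nM to 3 µM. Steps lasted from 0.8–1.5 h at the lowest concentration to 10–20 min at the highest. The apparent KD is each design's median over clusters of curve-fitted normalised fluorescence.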

Setting [1] is: input ligand: microRNA oligo, concentration not stated.
The mark [2] stands for this setting: Eterna round: R95, input ligand: microRNA oligo, concentration not stated.
Where [3] appears, read: Eterna round: R95, input ligand: FMN 200 uM.
Setting [4] is: Eterna round: R95, input ligand: none.

Consider “GUUACAUGAGGAUCACCCAUGUAUGUGUGGGAGUAAGUGUCUUAGGAUAUCUGUUUUUUAAUUUAAGAGAAGGAAGAUUGUUGU [JMF's solution 33] (Eterna round: R96, puzzle: Same State NG 3)”, for which the “apparent KD of MS2 coat protein” value by setting is: (input ligand: FMN 200 uM) 105 nM; under setting [1], 59.6 nM; (input ligand: none) 112 nM.

With “GUUACAUGAGGAUCACCCAUGUGUGUGUGGGAGUAAGUGGCUUAGGAUAUCUAUGAUUUAAGUUAAGAGAAGGAAGAUUGUUGU [SS-NG3-LRO02] (Eterna round: R96, puzzle: Same State NG 3)”, the “apparent KD of MS2 coat protein” value worked out at 194 nM (input ligand: FMN 200 uM), 204 nM under setting [1] and 272 nM (input ligand: none).

Turning to “GUUACAUGAGGAUCACCCAUGUGUGUGUGGGAGUGAGUGGCUUAGGAUAUCUAUGAUUUUAGUUAAGAGAAGGAGGAUUGUUGU [SS-NG3-LRO06] (Eterna round: R96, puzzle: Same State NG 3)”, the “apparent KD of MS2 coat protein” value worked out at 365 nM (input ligand: FMN 200 uM), 322 nM under setting [1] and 380 nM (input ligand: none).

Consider “GUUAGGAAUCUAGCAAACAUGAGGAUCACCCAUGUAAGUGGGAAGGAUAUGGUACAGAAACUGUACCAGAAGGUCUUAUUGAUU [Omei SS(NG) 3 AV5] (Eterna round: R96, puzzle: Same State NG 3)”, for which the “apparent KD of MS2 coat protein” value is, setting by setting: (input ligand: FMN 200 uM) 81.7 nM; under setting [1], 247 nM; (input ligand: none) 371 nM.

In the case of “GUUAGGAAUCUAGCAUACAUGAGGAUCACCCAUGUAAGUGGGAAGGAUAUGGUACAGAAACUGUACCAGAAGGUCUUAUUGUUU [Omei SS(NG) 3 AV7] (Eterna round: R96, puzzle: Same State NG 3)”, the “apparent KD of MS2 coat protein” value was 149 nM (input ligand: FMN 200 uM), 366 nM under setting [1] and 330 nM (input ligand: none).

“GUUAGGAAUCUAGCCAACAUGAGGAUCACCCAUGUUAGUGGGAAGGAUAUGGUACAGAAACUGUACCAGAAGGUCUUAUUGUUU [Omei SS(NG) 3 AV10] (Eterna round: R96, puzzle: Same State NG 3)”: the “apparent KD of MS2 coat protein” value (input ligand: FMN 200 uM) worked out at 75.4 nM, the “apparent KD of MS2 coat protein” value under setting [1] is 54.6 nM and the “apparent KD of MS2 coat protein” value (input ligand: none) is 96.6 nM.

For “GUUAUACAUGAGGAUCACCCAUGUCAAUGUAGUCGAGGAUAUGGGCAGCUAUGAGGCGUACUAGAAGGCGAUGAGU [JL-ss1-3.14 ViennaUCT mod] (puzzle: Same State 1)”, the “apparent KD of MS2 coat protein” value under setting [2] was determined as 122 nM.

For the sequence “GUUAUUAAUGCAGGAUAUGAUUAACAUGAGGAUCACCCAUGUGGUGUUGUGAGUAAGGAGAGUGAUCAGAAGGGCAUUUUUUUU [JMF's solution 40] (Eterna round: R96, puzzle: Same State NG 2)”, the “apparent KD of MS2 coat protein” value was 890 nM (input ligand: FMN 200 uM), 815 nM under setting [1] and 764 nM (input ligand: none).

On to “GUUUCAUCGAAAGGAUAUGUAUUGAUUGCCAUUGCAGAAGGUUCUCAGACAUGAGGAUCACCCAUGUCAAGCGGAAACGUAGUA [Eternabot solution 37] (Eterna round: R96, puzzle: Same State NG 1)”, for which the “apparent KD of MS2 coat protein” value is, setting by setting: (input ligand: FMN 200 uM) 20.1 nM; under setting [1], 15.4 nM; (input ligand: none) 47.6 nM.

Regarding “UAAACUUCUUUUAGUGUGUUGCCAGUUUUACAUGAGGAUCACCCAUGUUAAGUAUUGUGGUAUUUUGUUCGUCUUAA [JR_SHM208A_Sub074] (puzzle: Sensor for hsa-mir-208a)”, the “apparent KD of MS2 coat protein” value runs as follows: under setting [3], 15.2 nM; under setting [2], 14.2 nM; under setting [4], 15.3 nM.

“UAAAGUUAGCGAGGAUAUCGUUUAUUGAAGUUACGAGAAGGCGCUCUUCUUACAUGAGGAUCACCCAUGUCUGUUUUGCAUGAU [JR_SSNG1_Sub067] (Eterna round: R96, puzzle: Same State NG 1)”: the “apparent KD of MS2 coat protein” value by setting is: (input ligand: FMN 200 uM) 52 nM; under setting [1], 63 nM; (input ligand: none) 71.3 nM.

With “UAAAUAAAGUAAGGAUAUACAUGAGGAUCUCUCGUAGAAGGUACUAUACAUGAGGAUCACCCAUGUGCCGGUCAAUAGACUGGA [Mat - Same State NG 1 - JL mod - D9] (Eterna round: R96, puzzle: Same State NG 1)”, the “apparent KD of MS2 coat protein” value came to 589 nM (input ligand: FMN 200 uM), 131 nM under setting [1] and 446 nM (input ligand: none).

Take “UAAGUAUGUUGAGGAUAUUAUGUUUGGUGAGAUGACAUGAGGAUCACCCAUGUGUUAUCAGUUCUUAAGAAGGCAACAUACUUA [JR_SSNG2_Sub092] (Eterna round: R96, puzzle: Same State NG 2)”: the “apparent KD of MS2 coat protein” value under setting [1] amounted to 20 nM.

Consider “UAAGUCAUGUAAGGAUAUGCAGCCGAAACGGCUGCAGAAGGUACUAUAAUUACAUGAGGAUCACCCAUGUUAUAAAAUUAAAAU [Mat - Same State NG 1 - JL mod - D79] (Eterna round: R96, puzzle: Same State NG 1)”, for which the “apparent KD of MS2 coat protein” value amounted to 20.8 nM (input ligand: FMN 200 uM), 31.1 nM under setting [1] and 57.3 nM (input ligand: none).

Turning to “UAAUUAAGUCAAGGAUAUCACGUCGUUUAGACGUGAGAAGGUGACCAAUACAUGAGGAUCACCCAUGUAAUACAUGAAUAAUUA [SSNG1/12-B3] (Eterna round: R96, puzzle: Same State NG 1)”, the “apparent KD of MS2 coat protein” value is 35.5 nM (input ligand: FMN 200 uM), 46.9 nM under setting [1] and 51.4 nM (input ligand: none).

Take “UACAAUCUAUCUGAGGAUAUCAUGAAUAAAACAUGAGGAUCACCCAUGUGCAGGAAAACUGCAUAUGAGAAGGCAGAUAGAUUGA [Mat - Same State 2 - Mod - D12] (puzzle: Same State 2)”: the “apparent KD of MS2 coat protein” value under setting [3] came out at 45.9 nM, the “apparent KD of MS2 coat protein” value under setting [2] was 411 nM and the “apparent KD of MS2 coat protein” value under setting [4] was 1450 nM.

For the sequence “UACAAUCUAUCUGAGGAUAUCAUGAAUAAAACAUGAGGAUCACCCAUGUGCAGGAAAACUGCAUAUGAGAAGGCAGAUAGAUUGU [salish99_ss2_r3_067] (puzzle: Same State 2)”, the “apparent KD of MS2 coat protein” value was 45.9 nM under setting [3], 181 nM under setting [2] and 556 nM under setting [4].

For “UACAAUCUAUCUGAGGAUAUCAUGAUUAUAACAUGAGGAUCACCCAUGUGCAGGAAAACUGCAUAUGAGAAGGCAGAUAGAUUGU [salish99_ss2_r3_069] (Eterna round: R96, puzzle: Same State 2)”, the “apparent KD of MS2 coat protein” value reads like this: (input ligand: FMN 200 uM) 228 nM; under setting [1], 116 nM; (input ligand: none) 232 nM.

Turning to “UACAAUCUAUCUGAGGAUAUCAUGAUUAUAACAUGAGGAUCACCCAUGUGCAGGAAAACUGCAUAUGAGAAGGCAGAUAGAUUGU [salish99_ss2_r3_069] (puzzle: Same State 2)”, the “apparent KD of MS2 coat protein” value turned out to be 228 nM under setting [3], 1630 nM under setting [2] and 110 nM under setting [4].

With “UACAUACGCGGAGGAUAUGGGCGAGGCGCAGAGGUCUGCACCAAAACAUGAGGAUCACCCAUGUCCCAGAAGGCCGCACAAACU [Onageenza] (Eterna round: R96, puzzle: Same State NG 2)”, the “apparent KD of MS2 coat protein” value runs as follows: (input ligand: FMN 200 uM) 19.9 nM; under setting [1], 48.8 nM; (input ligand: none) 71.9 nM.

Turning to “UACAUACGCGGAGGAUAUGGGCGAGGCGCGGAGGUCCGCGCCAAAACAUGAGGAUCACCCAUGUCCCAGAAGGCCGCACAAACU [Atusso] (Eterna round: R96, puzzle: Same State NG 2)”, the “apparent KD of MS2 coat protein” value is, setting by setting: (input ligand: FMN 200 uM) 15.1 nM; under setting [1], 66.4 nM; (input ligand: none) 86.6 nM.

As for “UAGAAACAUGAGGAUCACCCAUGUGUCAAAGACAUAGGAUAUCACGACUGGAGUCAAUCGUGAGAAGGGUGGUAAA [Usra] (puzzle: Same State 1)”, the “apparent KD of MS2 coat protein” value under setting [3] is 92.3 nM, the “apparent KD of MS2 coat protein” value under setting [2] came out at 19.4 nM and the “apparent KD of MS2 coat protein” value under setting [4] stood at 38.7 nM.

In the case of “UAGAAACAUGAGGAUCACCCAUGUGUCAAAGACAUAGGAUAUCACGGCUAAAAUCAGCCGUGAGAAGGGUGGUAAA [Aisbira] (puzzle: Same State 1)”, the “apparent KD of MS2 coat protein” value was 57.1 nM under setting [3], 61.1 nM under setting [2] and 56.2 nM under setting [4].

In the case of “UAGAAACAUGAGGAUCACCCAUGUGUCAGAGACAUAGGAUAUCGUAACCAGCGCCGGAUACGAGAAGGGUGGUAAA [Enraxe] (puzzle: Same State 1)”, the “apparent KD of MS2 coat protein” value by setting is: under setting [3], 156 nM; under setting [2], 38.5 nM; under setting [4], 51.3 nM.

For the sequence “UAGAACAAGCUUUUUGCCCGUCUUAUAUAACAUGAGGAUCACCCAUGUAAGGUGAAAGUUAGAGAGUGGAGGAAGAA [JR_SHM208A_Sub053] (puzzle: Sensor for hsa-mir-208a)”, the “apparent KD of MS2 coat protein” value worked out at 95.3 nM under setting [3], 272 nM under setting [2] and 123 nM under setting [4].

With “UAGAAUCUAUCUCAGGAUAUCAUGUCAAAGACAUGAGGAUCACCCAUGUACCAGGAAACUGGUUAUGAGAAGGGAGAUAGAUUCU [Mat - Same State 2 - Mod - D33] (puzzle: Same State 2)”, the “apparent KD of MS2 coat protein” value reads like this: under setting [3], 160 nM; under setting [2], 158 nM; under setting [4], 281 nM.

As to “UAGAGAGGAAGCGAGGAUAUCGUGUGAGGUACAUGAGGAUCACCCAUGUUUGAUGUUGAGAGAGGCGAGAAGGCGCAGGAGAAAA [JR_SS2_Sub086] (puzzle: Same State 2)”, the “apparent KD of MS2 coat protein” value is, setting by setting: under setting [3], 30.8 nM; under setting [2], 24.9 nM; under setting [4], 38.7 nM.

In the case of “UAGAGAGGAAGCGAGGAUAUCGUGUUAGGUACAUGAGGAUCACCCAUGUUGUAGGUAGAGGUAGGCGAGAAGGCGCAGGAGAGGU [JR_SS2_Sub094] (puzzle: Same State 2)”, the “apparent KD of MS2 coat protein” value under setting [3] turned out to be 33.4 nM, the “apparent KD of MS2 coat protein” value under setting [2] was 38.8 nM and the “apparent KD of MS2 coat protein” value under setting [4] stood at 41.4 nM.
